The source of these data is patent publication US20030219740.

Series [1] has as its target carboxyl terminal APC fragment (UniProt P25054).
For series [2], the system named is histone.
Series [3] deals with poly-threonine.

carboxyl terminal APC fragment, sequence (P25054 2168-2843): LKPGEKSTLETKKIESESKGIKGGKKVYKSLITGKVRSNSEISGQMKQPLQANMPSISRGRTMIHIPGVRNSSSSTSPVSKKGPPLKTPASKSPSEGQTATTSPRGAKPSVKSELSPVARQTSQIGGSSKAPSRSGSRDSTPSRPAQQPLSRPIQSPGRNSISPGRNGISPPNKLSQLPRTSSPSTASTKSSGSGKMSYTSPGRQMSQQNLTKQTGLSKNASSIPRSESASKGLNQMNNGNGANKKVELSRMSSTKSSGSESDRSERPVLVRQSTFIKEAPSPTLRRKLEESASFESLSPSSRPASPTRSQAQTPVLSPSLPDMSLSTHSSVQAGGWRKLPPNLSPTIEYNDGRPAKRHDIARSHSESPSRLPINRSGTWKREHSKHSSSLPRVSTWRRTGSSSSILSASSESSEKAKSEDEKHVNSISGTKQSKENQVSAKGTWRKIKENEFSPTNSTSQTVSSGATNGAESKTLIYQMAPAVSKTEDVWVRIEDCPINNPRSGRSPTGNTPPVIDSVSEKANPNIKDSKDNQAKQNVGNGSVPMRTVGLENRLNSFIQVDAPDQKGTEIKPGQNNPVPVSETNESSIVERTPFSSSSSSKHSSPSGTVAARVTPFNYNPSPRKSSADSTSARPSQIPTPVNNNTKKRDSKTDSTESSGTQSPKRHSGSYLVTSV

As for MNSRPRRRDIDRLEHLHLTEFGLKLGQKIFLLNKRDFILFLSLF (enzyme) [CATX-2 protein], the “phosphorylation in vitro (γ-32P)” value in series [1] was “CATX-2 protein could phosphorylate histone 5 µg, poly-threonine 5 µg, and COOH-APC fragment (1-5 µg)”; in series [2] it was “CATX-2 protein could phosphorylate histone 5 µg”; in series [3], “CATX-2 protein could phosphorylate histone 5 µg, poly-threonine 5 µg”.
